Target: T1, MOCS2B wild-type, large subunit of MPT synthase (human, UniProt O96007 1-188)
T1 sequence (looked up): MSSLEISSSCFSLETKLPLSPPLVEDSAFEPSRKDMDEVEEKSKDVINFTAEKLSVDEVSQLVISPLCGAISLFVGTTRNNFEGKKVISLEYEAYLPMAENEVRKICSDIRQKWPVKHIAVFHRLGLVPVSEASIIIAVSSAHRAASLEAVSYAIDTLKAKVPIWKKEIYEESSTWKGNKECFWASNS
Test: ITC

Kd: 360 ± 47 nM
B1: MOCS2A, small subunit of MPT synthase (activated, thiocarboxylated) (natural protein, human, UniProt O96033 1-88, looked up)
chain: MVPLCQVEVLYFAKSAEITGVRSETISVPQEIKALQLWKEIETRHPGLADVRNQIIFAVRQEYVELGDQLLVLQPGDEIAVIPPISGG
modifications: thiocarboxylated C-terminal tail

Reference: paper PMC4329827 (Meta Gene, 2015)
